Experimental data reported in patent US20170049848A1, “Target for Firmicutes and Related Bacteria: The PRP Protease” (VIRGINIA COMMONWEALTH UNIVERSITY, priority 2014, published 2017).
Primed or numbered codes have the meaning given here. Where no end group is shown, it is not given here. [ ]: non-standard residue; d: D form. Dnp″ = dinitrophenol quencher on C-terminus; 2Abz = Nc1ccccc1C(=O)O

What was measured:
[1] = Stability of quenched peptide substrate in solution; assay type: physicochemical; conditions: monitored in solution over time, without enzyme
From the text: (§1) Development of Prp Assay In order to study Prp enzymology in vitro, an assay was designed using a quenched fluorescent peptide substrate derived from the cleavage motif on L27. The peptide KLNLQFFASKK (GI:15927225; SEQ ID NO:1) was chosen for its content of hydrophilic residues and fluorophore 2-amino benzoic acid (2-abz) was conjugated to the N terminus, with a dinitrophenol (Dnp) quencher conjugated to the C-terminus. The resulting peptide substrate (2abz-KLNLQFFASKK-Dnp; SEQ ID NO:1) was ordered from United Peptide in Herndon, Va. (now United Biosystems). The substrate was initially resuspended to 2 mM with a buffer containing 25 mM Tris pH8 and 300 mM NaCl. Fluorescence was measured using an excitation wavelength of 325 nm and an emission wavelength of 425 nm using a Photon Technology International QuantaMaster steady-state fluorescent spectrometer. Prp was initially purified and analyzed as a His6-SUMO N-terminal fusion protein from plasmid pEW34. His6-SUMO fusions were also made of PrpC34A (pEW39) and PrpC34S (pEW40).
The amino acid sequence of the substrate was selected to maximize its hydrophilic residue content, aiming for the greatest possible peptide solubility. […] The assay allows us to determine Prp kinetics, and the effects of any mutants on the Km or Kcat.

S. aureus strain SA178RI = experiment: Growth curves of S. aureus strains over-expressing Prp, L27 variants or peptide; assay type: cell-based, Staphylococcus aureus; conditions: T7 plasmid in SA178RI, induced with IPTG, 16 hours at 32° C.; strain still contains native L27 and Prp; compared with wild-type protein or empty vector
From the text: Bacterial Culture. All S. aureus strains used in this work are derivatives of the phage-cured, restriction-defective strain RN4220 (Kreiswirth, 1983). The S. aureus expression strain SA178RI carries a T7 RNA polymerase expression cassette under lac operator control (D'Elia, 2006). The plasmid used for expression in SA178RI was pG164, an E. coli-S. aureus shuttle vector carrying the T7 late promoter into which a lac operator, a multiple cloning site, an optimized gram-positive ribosome binding site, and a constitutively expressed copy of the lac repressor gene were introduced (D'Elia, 2006). S. aureus strains were grown in Trypticase Soy Broth (TSB) (Remel, Lenexa, Kans.) or Brain Heart Infusion (BHI) (Remel, Lenexa, Kans.) at 32° C.
For growth curve analysis of mutant over-expression strains, overnight cultures were inoculated directly into media containing inducer and appropriate antibiotics (TSB with 2 μg/ml tetracycline, 30 μg/ml chloramphenicol and 1 mM IPTG) and monitored at OD600 for 16 hours in a 96 well plate format Biotek Microplate reader.
Both L27 and Prp are essential in S. aureus. One common approach is to examine the effects of mutations in essential genes is to over-express mutant allele and assess the resulting phenotypes. […]

[2] = test system: S. aureus ribosome assembly (70S ribosomes, 50S subunit); experiment: Polysome analysis (sucrose gradient ribosomal subunit profiles) of over-expression strains; assay type: cell-based, Staphylococcus aureus; conditions: overexpression in S. aureus SA178RI, compared with empty vector
Protocol: Polysome analysis. Overnight cultures of strains for polysome analysis were inoculated into a flask of media containing inducer and appropriate antibiotics (TSB with 2 μg/ml Tet, 30 μg/ml Chl and 1 mM IPTG) beginning at a 1:100 dilution and grown until they reached a Klett reading of 90 or for 4 hours. As noted above, S. aureus expressing Prp C34A will not grow above Klett 50 for over 8 hours, so this strain was grown at a double volume compared to the others so that an equivalent number of cells could be harvested. Cell pellets from at least 100 ml of culture were resuspended in buffer PA (20 mM Tris pH 7.8, 100 mM NH4Cl, 10 mM MgCl2, 6 mM beta mercaptoethanol), broken by bead beating and then cleared by centrifugation for 10 minutes at 13000 rpm at 4° C. The clarified cell lysates were applied to the top of 10-40% sucrose gradients in buffer PA. The gradients were centrifuged for 17 hours at 19000 rpm on an SW-28 rotor at 4° C. Gradients were analyzed for absorbance at 254 nm using a Biocomp Piston Gradient Fractionator with a BIORAD Econo UV Monitor with a Full Scale of 1.0. Data were recorded using DataQ DI-158-UP data acquisition software, as has been previously reported (O'Farrell, 2012). Areas under each peak were calculated using the trapezoid method. […]

[3] = target: Staphylococcus aureus L27 F8A-F9A with C-terminal Myc and His6 tags (un-cleavable), Q2FXT0
[4] = target: T1, 2abz-KLNLQFFASKK-Dnp quenched fluorescent peptide substrate
T1 chain: KLNLQFFASKK

[5] = test system: peptide substrate 2abz-KLNLQFFASKK-Dnp (L27 cleavage motif); experiment: Quenched fluorescent peptide Prp assay; assay type: biochemical, Staphylococcus aureus; conditions: N-terminal His6-SUMO fusion proteins; excitation 325 nm, emission 425 nm
From the text: as §1, with “His6-SUMO fusions were also made of PrpC34A (pEW39) and PrpC34S (pEW40).” left out
In order to test the predictions that our model makes regarding residues important to substrate binding and catalysis and ultimately to search for inhibitors, it was necessary to design a high throughput-capable continuous fluorescent assay. […] In this type of assay, when the substrate is cleaved the fluorophore is released from its quenching partner and fluorescence readings at the fluorophore emission wavelength increase with time. […]

2abz-KLNLQFFASKK-Dnp ([2Abz]KLNLQFFASKK-{Dnp″}) [quenched fluorescent peptide substrate, 2-amino benzoic acid at N terminus, dinitrophenol quencher at C-terminus]
stability of peptide in solution [1]: stable and did not self-cleave or change fluorescence over time

MLKLNLQFF
effect on S. aureus growth upon overexpression (S. aureus strain SA178RI): pronounced lag in the middle of the exponential growth phase
effect on ribosomal subunit profile [2]: no anomalies

B1: Staphylococcus aureus Prp (phage-related ribosomal protease), wild type, untagged (protein)
chain: MITVDITVNDEGKVTDVIMDGHADHGEYGHDIVCAGASAVLFGSVNAIIGLTSERPDINYDDNGGHFHIRSVDTNNDEAQLILQTMLVSLQTIEEEYNENIRLNYK
N-terminal cleavage of L27 (Western blot) [3]: this protein with N-terminal residues […] was no longer cleaved by Prp via Western blot

B2: His6-SUMO-Prp N-terminal fusion protein (wild type) (protein)
chain: B1 chain
fluorescence increase in the quenched fluorescent peptide assay [4]: fluorescence increase only occurred in the presence of wild type Prp fusion proteins

B3: wild-type Prp: S. aureus phage-related ribosomal protease, cysteine protease that cleaves L27 (protein)
chain: B1 chain
fluorescence increase / catalysis with quenched peptide substrate [5]: fluorescence increase only occurred in the presence of wild type Prp
effect on ribosomal subunit profile [2]: did not deviate significantly from empty vector
